Results on 3 molecules are retold here after patent publication US20260224661A1 (Stanford University, published 2026).

For assay [1], the target named is Tenm1 (as used in the affinity determinations of FIG. 2E-F) (UniProt Q9UKZ4 1-2725). The assay can be described thus: surface binding saturation curve.
The target of assay [2] is T1, Tenm1 expressed in HEK293 cells (human, UniProt Q9UKZ4 1-2725).
T1 construct: also called teneurin-1
The assay can be described thus: surface-binding assay on HEK293 cells expressing Tenm1 (FIG. 4E).

Assay [3] addresses T2, Tenm3 expressed in HEK293 cells (mouse, UniProt Q9WTS6 1-2715).
T2 construct: also called teneurin-3
The assay can be described thus: surface-binding assay on HEK293 cells expressing Tenm3 (FIG. 4E).

Assay [4] has as its target T3, Tenm2 expressed in HEK293 cells (human, UniProt Q9NT68 1-2774).
T3 construct: also called teneurin-2
Nature of the assay: surface-binding assay on HEK293 cells expressing Tenm2 (FIG. 4E).

Assay [5] concerns the target T4, Tenm4 expressed in HEK293 cells (mouse, UniProt Q3UHK6 1-2771).
T4 construct: also called teneurin-4
Nature of the assay: surface-binding assay on HEK293 cells expressing Tenm4 (FIG. 4E).

Tenm1 (as used in the affinity determinations of FIG. 2E-F), sequence (Q9UKZ4 other isoform, or with tags, fused parts or gaps): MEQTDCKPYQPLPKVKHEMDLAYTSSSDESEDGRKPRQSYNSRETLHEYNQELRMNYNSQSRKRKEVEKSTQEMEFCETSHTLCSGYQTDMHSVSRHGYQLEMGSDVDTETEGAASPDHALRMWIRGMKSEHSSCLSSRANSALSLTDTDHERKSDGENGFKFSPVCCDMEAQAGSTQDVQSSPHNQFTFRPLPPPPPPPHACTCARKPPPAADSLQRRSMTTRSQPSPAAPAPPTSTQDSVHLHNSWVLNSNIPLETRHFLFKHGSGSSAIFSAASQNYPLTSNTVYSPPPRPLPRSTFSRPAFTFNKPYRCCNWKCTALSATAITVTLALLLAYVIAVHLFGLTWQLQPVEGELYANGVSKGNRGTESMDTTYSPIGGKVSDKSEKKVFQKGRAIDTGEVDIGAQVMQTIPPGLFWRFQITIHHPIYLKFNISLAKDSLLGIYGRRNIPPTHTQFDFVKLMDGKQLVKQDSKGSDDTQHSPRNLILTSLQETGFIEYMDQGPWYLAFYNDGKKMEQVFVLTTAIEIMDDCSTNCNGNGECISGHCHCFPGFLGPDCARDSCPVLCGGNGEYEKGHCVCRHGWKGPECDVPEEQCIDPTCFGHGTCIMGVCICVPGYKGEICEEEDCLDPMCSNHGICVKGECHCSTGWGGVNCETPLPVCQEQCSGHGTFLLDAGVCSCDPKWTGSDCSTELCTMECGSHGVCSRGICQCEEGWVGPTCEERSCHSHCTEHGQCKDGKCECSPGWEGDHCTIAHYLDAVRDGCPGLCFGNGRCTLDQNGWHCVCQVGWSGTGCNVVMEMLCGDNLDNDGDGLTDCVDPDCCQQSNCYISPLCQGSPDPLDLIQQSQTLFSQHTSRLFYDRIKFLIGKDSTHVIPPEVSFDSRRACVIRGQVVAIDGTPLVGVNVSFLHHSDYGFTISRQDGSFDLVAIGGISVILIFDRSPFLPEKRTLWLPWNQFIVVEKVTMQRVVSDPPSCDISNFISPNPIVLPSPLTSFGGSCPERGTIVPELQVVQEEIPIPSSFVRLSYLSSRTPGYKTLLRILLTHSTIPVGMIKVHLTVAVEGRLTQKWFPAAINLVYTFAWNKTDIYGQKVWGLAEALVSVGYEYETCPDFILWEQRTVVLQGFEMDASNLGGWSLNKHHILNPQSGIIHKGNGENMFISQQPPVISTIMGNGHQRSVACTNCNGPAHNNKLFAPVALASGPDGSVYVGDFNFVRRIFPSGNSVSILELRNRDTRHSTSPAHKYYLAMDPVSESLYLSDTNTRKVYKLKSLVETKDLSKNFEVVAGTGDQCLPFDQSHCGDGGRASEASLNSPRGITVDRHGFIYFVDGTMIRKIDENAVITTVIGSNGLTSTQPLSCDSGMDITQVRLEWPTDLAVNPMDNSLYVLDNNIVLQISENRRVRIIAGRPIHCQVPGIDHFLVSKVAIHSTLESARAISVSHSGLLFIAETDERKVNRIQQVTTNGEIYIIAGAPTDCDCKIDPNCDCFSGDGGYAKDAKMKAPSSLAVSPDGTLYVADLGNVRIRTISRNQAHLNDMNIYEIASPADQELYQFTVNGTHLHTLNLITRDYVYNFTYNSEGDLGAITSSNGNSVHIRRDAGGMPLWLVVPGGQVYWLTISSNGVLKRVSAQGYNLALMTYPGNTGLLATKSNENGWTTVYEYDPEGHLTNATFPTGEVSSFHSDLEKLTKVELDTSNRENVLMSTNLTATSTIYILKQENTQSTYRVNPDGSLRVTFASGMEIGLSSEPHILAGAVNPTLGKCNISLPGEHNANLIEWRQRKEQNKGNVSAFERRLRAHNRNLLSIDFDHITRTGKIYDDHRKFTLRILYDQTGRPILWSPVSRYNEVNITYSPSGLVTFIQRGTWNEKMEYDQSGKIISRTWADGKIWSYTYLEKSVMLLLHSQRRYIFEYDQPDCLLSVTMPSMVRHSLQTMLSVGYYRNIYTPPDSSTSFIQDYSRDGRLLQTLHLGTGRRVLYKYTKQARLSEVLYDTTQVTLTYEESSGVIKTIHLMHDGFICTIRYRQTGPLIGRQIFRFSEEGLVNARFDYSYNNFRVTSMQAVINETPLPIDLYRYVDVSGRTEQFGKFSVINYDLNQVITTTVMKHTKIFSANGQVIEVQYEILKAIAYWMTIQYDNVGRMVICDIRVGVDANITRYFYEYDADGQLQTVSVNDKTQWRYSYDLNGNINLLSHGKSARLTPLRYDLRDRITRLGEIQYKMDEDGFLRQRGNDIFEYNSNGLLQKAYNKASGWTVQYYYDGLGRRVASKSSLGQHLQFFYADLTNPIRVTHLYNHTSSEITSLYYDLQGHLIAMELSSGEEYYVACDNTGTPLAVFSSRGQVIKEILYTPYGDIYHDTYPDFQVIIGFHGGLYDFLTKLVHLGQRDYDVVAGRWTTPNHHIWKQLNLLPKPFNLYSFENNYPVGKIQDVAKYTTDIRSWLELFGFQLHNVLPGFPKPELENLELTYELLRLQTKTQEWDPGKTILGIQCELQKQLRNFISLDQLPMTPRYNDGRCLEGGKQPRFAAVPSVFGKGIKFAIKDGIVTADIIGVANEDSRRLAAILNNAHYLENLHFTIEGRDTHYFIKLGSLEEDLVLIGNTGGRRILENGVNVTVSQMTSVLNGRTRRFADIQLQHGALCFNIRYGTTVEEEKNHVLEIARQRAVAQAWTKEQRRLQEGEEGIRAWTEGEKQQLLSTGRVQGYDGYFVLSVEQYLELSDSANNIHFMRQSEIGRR
T1 sequence (Q9UKZ4 other isoform, or with tags, fused parts or gaps): as above

B1: C-terminal SPARCL1-C domain of SPARCL1 (ligand)
chain: PNAEPSDEGNSREHSAGSCTNFQCKRGHICKTDPQGKPHCVCQDPETCPPAKILDQACGTDNQTYASSCHLFATKCRLEGTKKGHQLQLDYFGACKSIPACTDFEVAQFPLRMRDWLKNILMQLYEPNPKHGGYLNEKQRSKVKKIYLDEKRLLAGDHPIELLLRDFKKNYHMYVYPVHWQFNELDQHPADRILTHSELAPLRASLVPMEHCITRFFEECDPNKDKHITLKEWGHCFGIKEEDIDENLLF
By Kd is commonly meant the free concentration of one partner at which half of the binding sites on the other are occupied at equilibrium, for simple one-to-one binding. A low value points to tighter binding. B1 displayed a Kd in assay [1] of 88.2 nM.

B2: full-length SPARCL1 (ligand)
chain: IPTSTRFLSDHSNPTTATLVTPEDATVPIAGVEATADIENHPNDKAEKPSALNSEEETHEQSTEQDKTYSFEVDLKDEEDGDGDLSVDPTEGTLTLDLQEGTSEPQQKSLPENGDFPATVSTSYVDPNQRANITKGKESQEQPVSDSHQQPNESSKQTQDLKAEESQTQDPDIPNEEEEEEEDEEEEEEEEPEDIGAPSDNQEEGKEPLEEQPTSKWEGNREQSDDTLEESSQPTQISKTEKHQSEQGNQGQESDSEAEGEDKAAGSKEHIPHTEQQDQEGKAGLEAIGNQKDTDEKAVSTEPTDAAVVPRSHGGAGDNGGGDDSKHGAGDDYFIPSQEFLEAERMHSLSYYLKYGGGEETTTGESENRREAADNQEAKKAESSPNAEPSDEGNSREHSAGSCTNFQCKRGHICKTDPQGKPHCVCQDPETCPPAKILDQACGTDNQTYASSCHLFATKCRLEGTKKGHQLQLDYFGACKSIPACTDFEVAQFPLRMRDWLKNILMQLYEPNPKHGGYLNEKQRSKVKKIYLDEKRLLAGDHPIELLLRDFKKNYHMYVYPVHWQFNELDQHPADRILTHSELAPLRASLVPMEHCITRFFEECDPNKDKHITLKEWGHCFGIKEEDIDENLLF
In assay [1], B2 gave a dissociation constant Kd of 73.2 nM.

B3: EF-hand Ca2+-binding domain of SPARCL1 (ligand)
chain: ACTDFEVAQFPLRMRDWLKNILMQLYEPNPKHGGYLNEKQRSKVKKIYLDEKRLLAGDHPIELLLRDFKKNYHMYVYPVHWQFNELDQHPADRILTHSELAPLRASLVPMEHCITRFFEECDPNKDKHITLKEWGHCFGIKEEDIDENLLF
notes: also called EF-hand domain; EC domain
B3: the binding result in assay [2], in assay [3], in assay [4] and in assay [5] was “no binding” in each case.
